From US20080050375A1 (Eli Lilly, published 2008)
Each block holds one binder with its values, some of them ahead of it.

How the values were obtained:
[1] = biological target: human TGF-beta 1 (R&D Systems, Cat # 240-B/CF) (human) (UniProt P01137); experiment: Biacore SPR, calculated koff/kon
latent TGF-beta 1 = biological target: T1, latent TGF-beta 1 (UniProt P01137 30-390, limits assumed); experiment: Biacore SPR, mAb captured on Protein A, 5 nM ligand injected; stoichiometry from captured signals
T1 construct: Latent complex (pro-peptide with mature TGF-beta 1); also called Latent TGF-β1; latent form of TGF-beta 1
T1 sequence (P01137 30-390 limits assumed): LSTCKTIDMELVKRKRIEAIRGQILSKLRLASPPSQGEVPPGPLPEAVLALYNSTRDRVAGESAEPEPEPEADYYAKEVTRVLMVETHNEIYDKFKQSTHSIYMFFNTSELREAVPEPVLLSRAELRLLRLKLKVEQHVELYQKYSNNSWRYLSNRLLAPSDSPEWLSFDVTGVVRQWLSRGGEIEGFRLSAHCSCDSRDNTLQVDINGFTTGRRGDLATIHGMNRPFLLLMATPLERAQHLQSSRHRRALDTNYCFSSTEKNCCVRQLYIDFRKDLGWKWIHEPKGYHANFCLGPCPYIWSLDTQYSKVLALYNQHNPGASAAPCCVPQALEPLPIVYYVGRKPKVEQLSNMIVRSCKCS
Procedure: BIAcore methods are used to determine the ability of invention mAb compositions to bind other entities, specifically the latent form of TGF-beta 1 or TGF-beta 3. All measurements are performed at room temperature. Samples are dissolved in HBS-EP buffer (150 mM sodium chloride, 3 mM EDTA, 0.01% (w/v) surfactant P-20, and 10 mM HEPES, pH7.4). Recombinant Protein A is immobilized on all four flow cells of a CM4 sensor chip at a level of 400-450 response units (RUs) using an amine coupling kit.
Binding is evaluated using multiple analytical cycles. Each cycle is performed at a flow rate of 100 μL/minute consisting of the following steps: injection of 15 μL of an antibody binding composition at 1 μg/mL, injection of 250 μL of either 5 nM TGF-beta 1, 5 nM latent TGF-beta 1, or 5 nM TGF-beta 3 followed by a short delay (5 min) for dissociation, and regeneration using two injections of 50 μL of 10 mM glycine hydrochloride, pH1.5. The amount of signal after capturing first the Mab, and then the ligand, are determined using the instrument control software. Since the signal is proportional to the mass of protein captured, the stoichiometry of the captured ligand is readily calculable (Table 4).

[2] = biological target: human TGF-beta 1 (R&D Systems, Cat # 240-B/CF) (human) (UniProt P01137); experiment: cell-based or functional assay
[3] = biological target: T2, human TGF-beta 3 (RDI, Cat # RDI-1036/CF) (human) (UniProt P10600); experiment: ratio of Biacore Kd for TGF-β3 to Kd for TGF-β1
T2 sequence (looked up): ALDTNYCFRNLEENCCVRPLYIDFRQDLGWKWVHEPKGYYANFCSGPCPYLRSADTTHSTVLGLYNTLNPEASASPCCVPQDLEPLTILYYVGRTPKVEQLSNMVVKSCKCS

[4] = biological target: T2, human TGF-beta 3 (RDI, Cat # RDI-1036/CF) (human); experiment: Biacore SPR, equilibrium fit, mAb captured on Protein A, TGF-β3 injected
[5] = biological target: human TGF-beta 1 (R&D Systems, Cat # 240-B/CF) (human) (UniProt P01137); experiment: Biacore SPR, mAb captured on Protein A, 5 nM ligand injected; stoichiometry from captured signals
[6] = biological target: human TGF-beta 1 (R&D Systems, Cat # 240-B/CF) (human) (UniProt P01137); experiment: Biacore SPR, mAb captured on Protein A, TGF-beta 1 injected
[7] = biological target: T3, TGF-beta 1 mutein (R25K, K26R, V33I, P87T, V89L, K95T) (Homo sapiens (Human), UniProt P01137 279-390, Mature TGF-beta 1 is a disulfide-linked homodimer; one monomer chain is given.); experiment: laser desorption/ionization time-of-flight MS on chips (Ciphergen)
T3 chain: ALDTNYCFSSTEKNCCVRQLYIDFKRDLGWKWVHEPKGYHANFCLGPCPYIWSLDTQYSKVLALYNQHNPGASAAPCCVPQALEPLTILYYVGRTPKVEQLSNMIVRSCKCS

- Kd [1]: 0.0006 nM
- Stoichiometry of ligand binding (latent TGF-beta 1): 0.08
- Fold Improvement in IC50 relative to mAb2471 (HT-2 cell proliferation assay) [2]: 401 fold
- Specificity (Kd, β3/Kd, β1) [3]: 3670 fold
- Kd [4]: 2.2 nM
- Stoichiometry of ligand binding [5]: 1.74
- koff [6]: 8e-06 s⁻¹
- kon [6]: 1.3e+07 M⁻¹ s⁻¹
B1: mAb C27 (antibody, IgG4, V domains shown)
VH: QVQLVQSGAEVKKPGASVKVSCKASGYTFTDYNIHWVRQAPGQGLEWMGYIYPYDGETGYNQKFKSRVTMTTDTSTSTAYMELRSLRSDDTAVYYCARGYRAFEYWGQGTLVTVSS
VL: DIQMTQSPSSLSASVGDRVTITCRASSSVPYMHWYQQKPEKAPKSLIYATSNLAFGVPSRFSGSGSGTDFTLTISSLQPEDFATYYCQQWDLNPPAFGQGTKLEIK

B2: mAb 1D11 (R&D Systems) (antibody, V domains shown)
VH: QVQLQQSGPELVRPGASVKLSCKASGYIFITYWMNWVKQRPGQGLEWIGQIFPASGSTNYNEMFEGKATLTVDTSSSTAYMQLSSLTSEDSAVYYCARGDGNYALDAMDYWGQGTSVTVSS
VL: DIVLTQSPASLAVSLGQRATISCRASESVDSYGNSFMHWYQQKSGQPPKLLIYLASNLESGVPARFSGSGSRTDFTLTIDPVEADDAATYYCQQNNEDPLTFGAGTKLEIK
- fold less binding of the TGF-beta 1 mutein relative to wild type TGF-beta 1 [7]: 2.5 fold
